Laboratory results published in patent US11458141B2, “Aryl hydrocarbon receptor (AhR) agonists for the prevention and treatment of inflammatory disorders” (The Johns Hopkins University, priority 2017, dated 2022).

Biological target: T1, AHR (Mus musculus, UniProt P30561)
T1 construct: from tissue; host or cells: mouse intestine (ileum / intestinal mucosa), in vivo
T1 sequence (P30561 10-848): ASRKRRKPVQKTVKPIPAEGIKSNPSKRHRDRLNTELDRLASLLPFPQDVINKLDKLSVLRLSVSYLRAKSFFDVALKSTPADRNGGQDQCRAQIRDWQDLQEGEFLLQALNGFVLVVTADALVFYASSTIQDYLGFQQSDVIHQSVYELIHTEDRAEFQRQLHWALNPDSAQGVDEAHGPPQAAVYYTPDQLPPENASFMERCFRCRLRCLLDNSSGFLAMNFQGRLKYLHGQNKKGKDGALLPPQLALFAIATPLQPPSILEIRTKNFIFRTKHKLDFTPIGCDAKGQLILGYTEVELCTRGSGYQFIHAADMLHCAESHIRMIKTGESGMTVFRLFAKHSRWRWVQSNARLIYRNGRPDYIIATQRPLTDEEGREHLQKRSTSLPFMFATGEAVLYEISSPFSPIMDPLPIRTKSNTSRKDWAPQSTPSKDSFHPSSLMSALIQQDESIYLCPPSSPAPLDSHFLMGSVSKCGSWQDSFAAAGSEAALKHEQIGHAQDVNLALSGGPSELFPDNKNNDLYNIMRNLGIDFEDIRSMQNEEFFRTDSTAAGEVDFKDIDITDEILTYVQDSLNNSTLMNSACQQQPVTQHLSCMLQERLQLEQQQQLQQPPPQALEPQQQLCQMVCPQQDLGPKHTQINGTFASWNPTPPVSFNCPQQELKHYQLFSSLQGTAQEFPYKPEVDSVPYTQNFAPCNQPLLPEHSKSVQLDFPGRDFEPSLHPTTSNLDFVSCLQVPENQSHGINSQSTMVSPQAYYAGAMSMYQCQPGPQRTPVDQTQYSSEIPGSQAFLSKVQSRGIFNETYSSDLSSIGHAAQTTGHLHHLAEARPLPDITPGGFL
Experiment: AHR activation in mice by breast milk components (preliminary data)
Format: in vivo
From the text: iii. Other effects of breast milk. Although it is shown that breast milk inhibits TLR4 signaling in part via AHR activation (FIG. 15), potential AHR ligands within breast milk have not yet been thoroughly examined.

AHR activation: can activate AHR in mice
B1: epidermal growth factor (EGF): molecule enriched within breast milk shown to prevent NEC (protein, UniProt P01133 23-1207, looked up)
Pro-epidermal growth factor: PQHWSCPEGTLAGNGNSTCVGPAPFLIFSHGNSIFRIDTEGTNYEQLVVDAGVSVIMDFHYNEKRIYWVDLERQLLQRVFLNGSRQERVCNIEKNVSGMAINWINEEVIWSNQQEGIITVTDMKGNNSHILLSALKYPANVAVDPVERFIFWSSEVAGSLYRADLDGVGVKALLETSEKITAVSLDVLDKRLFWIQYNREGSNSLICSCDYDGGSVHISKHPTQHNLFAMSLFGDRIFYSTWKMKTIWIANKHTGKDMVRINLHSSFVPLGELKVVHPLAQPKAEDDTWEPEQKLCKLRKGNCSSTVCGQDLQSHLCMCAEGYALSRDRKYCEDVNECAFWNHGCTLGCKNTPGSYYCTCPVGFVLLPDGKRCHQLVSCPRNVSECSHDCVLTSEGPLCFCPEGSVLERDGKTCSGCSSPDNGGCSQLCVPLSPVSWECDCFPGYDLQLDEKSCAASGPQPFLLFANSQDIRHMHFDGTDYGTLLSQQMGMVYALDHDPVENKIYFAHTALKWIERANMDGSQRERLIEEGVDVPEGLAVDWIGRRFYWTDRGKSLIGRSDLNGKRSKIITKENISQPRGIAVHPMAKRLFWTDTGINPRIESSSLQGLGRLVIASSDLIWPSGITIDFLTDKLYWCDAKQSVIEMANLDGSKRRRLTQNDVGHPFAVAVFEDYVWFSDWAMPSVMRVNKRTGKDRVRLQGSMLKPSSLVVVHPLAKPGADPCLYQNGGCEHICKKRLGTAWCSCREGFMKASDGKTCLALDGHQLLAGGEVDLKNQVTPLDILSKTRVSEDNITESQHMLVAEIMVSDQDDCAPVGCSMYARCISEGEDATCQCLKGFAGDGKLCSDIDECEMGVPVCPPASSKCINTEGGYVCRCSEGYQGDGIHCLDIDECQLGEHSCGENASCTNTEGGYTCMCAGRLSEPGLICPDSTPPPHLREDDHHYSVRNSDSECPLSHDGYCLHDGVCMYIEALDKYACNCVVGYIGERCQYRDLKWWELRHAGHGQQQKVIVVAVCVVVLVMLLLLSLWGAHYYRTQKLLSKNPKNPYEESSRDVRSRRPADTEDGMSSCPQPWFVVIKEHQDLKNGGQPVAGEDGQAADGSMQPTSWRQEPQLCGMGTEQGCWIPVSSDKGSCPQVMERSFHMPSYGTQTLEGGVEKPHSLLSANPLWQQRALDPPHQMELTQ
modifications: Pro-epidermal growth factor
